The values that follow come from doi:10.1101/2023.09.14.557805, “Determinants of DDX3X sensitivity uncovered using a helicase activity in translation reporter” (bioRxiv, 2023).

The experiment concerns the target T1, S. cerevisiae eIF4E (S. cerevisiae, UniProt P07260 1-213).
T1 construct: eIF4E of S. cerevisiae; 15N isotope labelled; m7GTP added to 250 μM in the NMR sample; source: E. coli BL21-star, purified (nickel resin, TEV cleavage, m7G cap resin)
T1 sequence (looked up): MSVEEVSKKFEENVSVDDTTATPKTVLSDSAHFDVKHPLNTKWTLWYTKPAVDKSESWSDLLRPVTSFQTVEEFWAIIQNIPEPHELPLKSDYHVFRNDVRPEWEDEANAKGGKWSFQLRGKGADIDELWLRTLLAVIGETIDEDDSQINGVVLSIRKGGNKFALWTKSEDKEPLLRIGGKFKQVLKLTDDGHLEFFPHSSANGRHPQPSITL
Description: NMR titration; 15N HSQC of 200 μM 15N eIF4E with 250 μM m7GTP, peptide added to 1 mM; 50 mM phosphate pH 6.5, 50 mM KCl, 10% D2O, 298 K, 900 MHz. Particulars: both partners purified.

B1: 4E-BP1 peptide (human 4E-BP1 amino acids 51–67) (peptide)
peptide: RIIYDRKFLMECRNSPV
notes: 4E-BP1, human, amino acids 51–67; Dissolved at 50 mM in DMSO; source: synthetic peptide (Elim Bio)
For the molecule B1, the binding result is on record as “binds”.
